Legend:
[1] = molecular target: T1, recombinant 10× His-tagged CD4 protein (extracellular domain of human CD4, GS linker, 10× histidine tag) (human, UniProt P01730 26-390); test: biolayer interferometry
T1 construct: also called recombinant CD4; sCD4 (analyte)

[2] = molecular target: T1, recombinant 10× His-tagged CD4 protein …; test: BLI KD set against the earlier estimate of KD >2 mM between CD4 and HLA class II
[3] = molecular target: T1, recombinant 10× His-tagged CD4 protein …; test: biolayer interferometry (Octet Red), biotinylated DP4 on streptavidin sensors, CD4 as analyte, steady-state fit
[4] = molecular target: T2, soluble CD4 (sCD4): human CD4 extracellular domain fused with a 6×His tag via a GS linker, dimerized with a … (human, UniProt P01730 26-396); test: flow cytometry, K562 cells
T2 construct: also called soluble CD4 protein; soluble CD4 dimer

[5] = molecular target: T2, soluble CD4 (sCD4): human CD4 …; test: flow cytometry, sCD4 MFI of K562 cells

Binder | binding result [5] | further results
biotinylated recombinant wild-type DP4 (extracellular domains of DPA1*01:03 and wild-type DPB1*04:01, leucine zippers) (other, also called biotinylated wild-type DP4 (ligand)) MHC II alpha: IKADHVSTYAAFVQTHRPTGEFMFEFDEDEMFYVDLDKKETVWHLEEFGQAFSFEAQGGLANIAILNNNLNTLIQRSNHTQATNDPPEVTVFPKEPVELGQPNTLICHIDKFFPPVLNVTWLCNGELVTEGVAESLFLPRTDYSFHKFHYLTFVPSAEDFYDCRVEHWGLDQPLLKHWEAQEPIQMPETTETGGGGSLEIRAAFLRQRNTALRTEVAELEQEVQRLENEVSQYETRYGPLGGGKGSHHHHHHHHHH MHC II beta: RATPENYLFQGRQECYAFNGTQRFLERYIYNREEFARFDSDVGEFRAVTELGRPAAEYWNSQKDILEEKRAVPDRMCRHNYELGGPMTLQRRVQPRVNVSPSKKGPLQHHNLLVCHVTDFYPGSIQVRWFLNGQEETAGVVSTNLIRNGDWTFQILVMLEMTPQQGDVYTCQVEHTSLDSPVTVEWKAQSDSARSKGGGGSLEIEAAFLERENTALETRVAELRQRVQRLRNRVSQYRTRYGPLGGGKGSGLNDIFEAQKIEWHE |  | binding result [1]: no binding (tested: 26 µM)
biotinylated recombinant DP4^[change]/[change] (extracellular domains of DPA1*01:03 and DPB1*04:01 [ (other) MHC II alpha: IKADHVSTYAAFVQTHRPTGEFMFEFDEDEMFYVDLDKKETVWHLEEFGQAFSFEAQGGLANIAILNNNLNTLIQRSNHTQATNDPPEVTVFPKEPVELGQPNTLICHIDKFFPPVLNVTWLCNGELVTEGVAESLFLPRTDYSFHKFHYLTFVPSAEDFYDCRVEHWGLDQPLLKHWEAQEPIQMPETTETGGGGSLEIRAAFLRQRNTALRTEVAELEQEVQRLENEVSQYETRYGPLGGGKGSHHHHHHHHHH MHC II beta: RATPENYLFQGRQECYAFNGTQRFLERYIYNREEFARFDSDVGEFRAVTELGRPAAEYWNSQKDILEEKRAVPDRMCRHNYELGGPMTLQRRVQPRVNVSPSKKGPLQHHNWLVCHVTDFYPGSIQVRWFLNGQEETAGVMSTNLIRNGDWTFQILVMLEMTPQQGDVYTCQVEHTSLDSPVTVEWKAQSDSARSKGGGGSLEIEAAFLERENTALETRVAELRQRVQRLRNRVSQYRTRYGPLGGGKGSGLNDIFEAQKIEWHE |  | fold improvement in the binding affinity [2]: ≥ 200 fold; Kd [3]: 8.9 µM
wild-type DP4 (DPA1*01:03 / DPB1*04:01) on K562 cells (other, human, whole, on cells; also called HLA-DP4) MHC II alpha: not shown MHC II beta: not shown |  | binding result [4]: no binding
V114M (other, also called DP4 with the single V114M substitution on K562 cells) DP alpha chain: IKADHVSTYAAFVQTHRPTGEFMFEFDEDEMFYVDLDKKETVWHLEEFGQAFSFEAQGGLANIAILNNNLNTLIQRSNHTQATNDPPEVTVFPKEPVELGQPNTLICHIDKFFPPVLNVTWLCNGELVTEGVAESLFLPRTDYSFHKFHYLTFVPSAEDFYDCRVEHWGLDQPLLKHWEAQEPIQMPETTET DP beta chain: RATPENYLFQGRQECYAFNGTQRFLERYIYNREEFARFDSDVGEFRAVTELGRPAAEYWNSQKDILEEKRAVPDRMCRHNYELGGPMTLQRRVQPRVNVSPSKKGPLQHHNLLMCHVTDFYPGSIQVRWFLNGQEETAGVVSTNLIRNGDWTFQILVMLEMTPQQGDVYTCQVEHTSLDSPVTVEWKAQSDSARSK | no binding | 
M158I (other, also called DP4 with the single M158I substitution on K562 cells) DP alpha chain: IKADHVSTYAAFVQTHRPTGEFMFEFDEDEMFYVDLDKKETVWHLEEFGQAFSFEAQGGLANIAILNNNLNTLIQRSNHTQATNDPPEVTVFPKEPVELGQPNTLICHIDKFFPPVLNVTWLCNGELVTEGVAESLFLPRTDYSFHKFHYLTFVPSAEDFYDCRVEHWGLDQPLLKHWEAQEPIQMPETTET DP beta chain: RATPENYLFQGRQECYAFNGTQRFLERYIYNREEFARFDSDVGEFRAVTELGRPAAEYWNSQKDILEEKRAVPDRMCRHNYELGGPMTLQRRVQPRVNVSPSKKGPLQHHNLLVCHVTDFYPGSIQVRWFLNGQEETAGVVSTNLIRNGDWTFQILVILEMTPQQGDVYTCQVEHTSLDSPVTVEWKAQSDSARSK | no binding | 
L112W/V114M (other, also called DP4 reversion mutant on K562 cells) DP alpha chain: IKADHVSTYAAFVQTHRPTGEFMFEFDEDEMFYVDLDKKETVWHLEEFGQAFSFEAQGGLANIAILNNNLNTLIQRSNHTQATNDPPEVTVFPKEPVELGQPNTLICHIDKFFPPVLNVTWLCNGELVTEGVAESLFLPRTDYSFHKFHYLTFVPSAEDFYDCRVEHWGLDQPLLKHWEAQEPIQMPETTET DP beta chain: RATPENYLFQGRQECYAFNGTQRFLERYIYNREEFARFDSDVGEFRAVTELGRPAAEYWNSQKDILEEKRAVPDRMCRHNYELGGPMTLQRRVQPRVNVSPSKKGPLQHHNWLMCHVTDFYPGSIQVRWFLNGQEETAGVVSTNLIRNGDWTFQILVMLEMTPQQGDVYTCQVEHTSLDSPVTVEWKAQSDSARSK | no binding | 
L112W/M158I (other, also called DP4 reversion mutant on K562 cells) DP alpha chain: IKADHVSTYAAFVQTHRPTGEFMFEFDEDEMFYVDLDKKETVWHLEEFGQAFSFEAQGGLANIAILNNNLNTLIQRSNHTQATNDPPEVTVFPKEPVELGQPNTLICHIDKFFPPVLNVTWLCNGELVTEGVAESLFLPRTDYSFHKFHYLTFVPSAEDFYDCRVEHWGLDQPLLKHWEAQEPIQMPETTET DP beta chain: RATPENYLFQGRQECYAFNGTQRFLERYIYNREEFARFDSDVGEFRAVTELGRPAAEYWNSQKDILEEKRAVPDRMCRHNYELGGPMTLQRRVQPRVNVSPSKKGPLQHHNWLVCHVTDFYPGSIQVRWFLNGQEETAGVVSTNLIRNGDWTFQILVILEMTPQQGDVYTCQVEHTSLDSPVTVEWKAQSDSARSK | no binding | 
L112W/V114M/M158I (other, also called DP4 reversion mutant on K562 cells) DP alpha chain: IKADHVSTYAAFVQTHRPTGEFMFEFDEDEMFYVDLDKKETVWHLEEFGQAFSFEAQGGLANIAILNNNLNTLIQRSNHTQATNDPPEVTVFPKEPVELGQPNTLICHIDKFFPPVLNVTWLCNGELVTEGVAESLFLPRTDYSFHKFHYLTFVPSAEDFYDCRVEHWGLDQPLLKHWEAQEPIQMPETTET DP beta chain: RATPENYLFQGRQECYAFNGTQRFLERYIYNREEFARFDSDVGEFRAVTELGRPAAEYWNSQKDILEEKRAVPDRMCRHNYELGGPMTLQRRVQPRVNVSPSKKGPLQHHNWLMCHVTDFYPGSIQVRWFLNGQEETAGVVSTNLIRNGDWTFQILVILEMTPQQGDVYTCQVEHTSLDSPVTVEWKAQSDSARSK | no binding | 
V114M/M158I (other, also called DP4 reversion mutant on K562 cells) DP alpha chain: IKADHVSTYAAFVQTHRPTGEFMFEFDEDEMFYVDLDKKETVWHLEEFGQAFSFEAQGGLANIAILNNNLNTLIQRSNHTQATNDPPEVTVFPKEPVELGQPNTLICHIDKFFPPVLNVTWLCNGELVTEGVAESLFLPRTDYSFHKFHYLTFVPSAEDFYDCRVEHWGLDQPLLKHWEAQEPIQMPETTET DP beta chain: RATPENYLFQGRQECYAFNGTQRFLERYIYNREEFARFDSDVGEFRAVTELGRPAAEYWNSQKDILEEKRAVPDRMCRHNYELGGPMTLQRRVQPRVNVSPSKKGPLQHHNLLMCHVTDFYPGSIQVRWFLNGQEETAGVVSTNLIRNGDWTFQILVILEMTPQQGDVYTCQVEHTSLDSPVTVEWKAQSDSARSK | no binding | 

— patent US20220281948A1 (UNIVERSITY HEALTH NETWORK, published 2022)
